Data: a protein production outcome set (Wang et al. 2014)

Experiment: label from the status in PepcDB records

## MPKVSVVIPAYNAMPYLPETLESVLRQTYHDFEVVVVNDGSSDNTEEWVSQILDPRLKLISQANQGLAGARNTGIVNASGEYIAFLDADDIWEPTKLAKQVSVLDENPTVGLVYTWVAYIDEQGKSTGKIFKNQVEGYVWPQLTEHNIVECGSVALVRRVCFEKMGLFDRNLGSYVEDWDMWLRIATSYDFKVVKEALVYYRQRSNSASKNWEAMAHSFAIVIEKAFATASQDLQVLKNKSYGFTYLCLAWKPLQSFQKDYQKSREFCQQAVAYYPSLRFSQEYIRLSIAINLMRWFGADGYSKLLPLFHTMRRVKLALQK
  protein production: failed

## NHSHSLAVIGSRNATQYTSQSLNYLFPSFRQLNMAIVSGLARGADSVAHQTALKYLLPTIGVLGFGHCYHYPKATLNLRTKVERNGLVISEYPPFSPISKHKFPERNRLISGLSRGVLITEAEERSGSQITIDCALEQNRNVYVLPGSMFNKMTKGNLRRINEGAQVVIDESSILYDYLF
  protein production: failed

## MHLAYPAVLSALLFCTGLYGVLARRNAILVLMSVELMLNAVNLNLVAFDVWLSRAAEETLHSGQALTLFTIAIAAAEIGIGLAIVLAVHRNRGTSDIDKLRDTAEGHEPDGPDTDTPATGTAAEKAEATA
  protein production: failed

## MMPLILSNTGEEVVIKKISGSDKTRTFLNSIGFVVGTNVKIVSKIDGNLIIDVKDTRVALDKKMASRIIILEHHHHHH
  protein production: failed

## MSLTFPTLSPTQIIQYIHLGSFLNAHNVDYIHNNNISSILLVGIEVPSLFKDQCDILRLDIVSEEGHQLYDSIPNAIKFIIRSIQRKEGVLIISGTGVNKAPAIVIAFLMYYQRLSFINAFNKVQGLYPLIDIESGFILQLKLFEKKLEKMNSEGHHHHHH
  protein production: not failed

## MKLERKNSGIIFLIFGVVFVLNALNPVMELLYIKAKGEIAEAKIVAYDFIQRSSRSGRGSSYKYIPIIEFFDGKEIVQVPVTMNSLNEELDIIGLDVKVSYLKNTPSKVIIDDKLFWLYEISNSLVVVGSFLLMVMLSQMSVETYRGRELTFNVPTKNKIIFLISGLPGVIGTFLSFYYGFITLKYNGLGFTSGTLILSLLIIGVYLLGIVNFLKIKNNYWG
  protein production: failed

## DKMDGAPSRVLHIRKLPGEVTETEVIALGLPFGKVTNILMLKGKNQAFLELATEEAAITMVNYYSAVTPHLRNQPIYIQYSNHKELKT
  protein production: not failed

## MKRPGAIPTVQIDNERVKVTEWRFPPGGETGWHRHSMDYVVVPMTTGPLLLETPEGSVTSQLTRGVSYTRPEGVEHNVINPSDTEFVFVEIEIKAA
  protein production: not failed

## MTTTNEQEQSRAYILAGLFTLSLRLVVGWTYFSAFWRRLVLENKLIPDSAGYIGEKFNHFLPNSIGIRPVIEYLVSTPDMLWWAMVIFTLVEGIVGLLYMLGFFTRLMSIGVFSLATGILLGSGWLGTTCLDEWQIGILGIAAGFTIFLSGGGKYSVDHLIERKFSLKKKAAWLSWLTSGELPVSAKRFANVSVAGAIVIFTLSLYTNQEFHNGVWGPLHNKSVKPKIEISDAQIENNSLSFSVYRVEGVDVYGSFLIGISLKNADGDIVLEKKGEELADFPIGNIDNKYIARVAPGKHSLVIPLGSKATLTVDDTAIGSLPKGKYELVLTDISGITWKKEIIH
  protein production: failed

## MSVIIAANNLCLQYQQNEPVIKHANLRIKRKDFVFISGPSGSGKSTLLRSFYGDLKLFSGKLEVCNINMNNASKATILDLRKNIGVVFQDYKLIQDYTIEQNIKLPMVICGIKKEECHLQLEKLLGHIDLRHKANRYPKELSGGEQQRVAMARAMANCPELILADEPTGNLDDYSSDKIWSLLRGMNTQLNATIVVVTHKFPKNFSAYHRKFYIEDGEVYEYS
  protein production: failed

## KSPVREPVDNLSPEERDARTVFCMQLAARIRPRDLEDFFSAVGKVRDVRIISDRNSRRSKGIAYVEFCEIQSVPLAIGLTGQRLLGVPIIVQASQAEKNRL
  protein production: not failed

## MSKLSLIQQLKQQKLSVGILSANWLQLNEEVTTLLENQINVLHFDIADGQFSSLFTVGAIGIKYFPTHCFKDVHLMVRNQLEVAKAVVANGANLVTLQLEQYHDFALTIEWLAKQKTTYANQVYPVLIGACLCPETPISELEPYLDQIDVIQLLTLDPRNGTKYPSELILDRVIQVEKRLGNRRVEKLINIDGSMTLELAKYFKQGTHQIDWLVSGSALFSGELKTNLKVWKSSIM
  protein production: not failed

## MKNIFLTMSLGIGLLFPCKLHAQSQYPFQNTTLSTEERVDDLIKRMTLEEKIDLLSGYNDFYLHPCERLGIPAFKLADGPLGVASWGLFGRATAFPSALSLAASWNKNLAEKTGAMYAQEWRARGIHFLLAPGVNNYRASKGARNFEYFGEDPYLASEMVVPFIKAVQDGGVIATIKHFAANDQEFDRYTVSTEVSERALQEIYLPPFKAAVQKAGVKAVMTGYNLVNGVYCTENKHLIDILKKDWGFKGMLMSDWACTYSAENAANYGLDLEMGSNDWFTRKELLPLVKEGKVTEEVINDKVRRIYGACISMGFFDRPQQDTDIPTFNPQANQMALNTACEGIILLKNEQNTLPIHRPKVIAVIGPTANPAIVSDRIYNVNSIVYGGGGSSKVHPWYVVSALEGIRQEFPEATVLYTEGISNQFKPRLFRNSKFRTKEGKPGLEANYYALSSDTSATLSDKMIQQQAVAAGRTVSVNQSADRTIETDKEESGLILRRTDRTVNYEWWGYPFNESKLGNDYRVCWEGYVDVEKTDSIRFFVDAQGAYRLWIDGTLALDASQSQSFDVRNTAISAKKGDAKHIRLEFCNQRSTPAEIRMGYAYQSDIDFSEAKRLAAKADLVVFCAGLDGSIELEGRDRPFDLPYGQDMLIQELVKVNPKLIVAIHAGGGINMTRWIDQVPAVVHALYPGQEGGHALAHILSGKVNPSAKLPFTIEKRWEDSPACGHYDETRKEKKVYYTEGIFTGYRGYDQKGIEPLFPFGFGLSYTTFDYSGLNIRMTDKKQKQLVVSFTVTNTGQRDGYEVAQLYVRDMQSKEPRPLKELKGFDKVYLKAGESKQIEIGLSEDAFQYFNAKQNRWVFEKGEFEILVGASSKDIRLAEKIKM
  protein production: failed

## MSLKYGHVAWIQQILDGSYADAMNTLKNITVDDSKKGESLSECELHLNVAKLSSLLVEKDNLDINTLRKIQYNLDTIDAEKNISNKLKKGEVQICKRFKNGSIREVFNILVEELKSTTVVNLSDLVELYSMLDDEESLFIPLRLLSVDGNLLNFEVKKFLNALVWRRIVLLNASNEGDKLLQHIVKRVFDEELPKNNDFPLPSVDLLCDKSLLTPEYISETYGRFPIDQNAIREEIYEEISQVETLNSDNSLEIKLHSTIGSVAKEKNYTINYETNTVEYEGHHHHHH
  protein production: not failed

## MGHHHHHHSHMIQYIPQRPPIVMISTLVSAEKNVTETELEIPAHGLFVKDGVLHEPGLIENVAQTAAAGVGYACTLTSQPVPVGFIGAVKNLEIDYLPKVGDVLETRVEVLEEIFDMTLIKGESFVKGKRVLTCEMKIVLKK
  protein production: failed

## MINVEQVFALDIGTRLVMGLIMEKAPGGYHIIARAQTEHRQRAMYDGQIHDIEEVAQAVQRVKEELEEKIKGKLHYVSVAAAGRALKTAVATAQKSELIPMIWEREDIFALEMEAVQQALREIQAEDEIIPYHCVGYSTIESLLEGQNLSSLSGQRGKEAQVKVIATFLPRTVIDGLTRVISKVGLEMRELTLEPIAAGRAAIPPDMRRMNLALVDVGAGTSDIALTKSGSFFAYGMVPMAGDEITERICQHFLVDFQTGEKIKRSLNTKTKVTFTDFLGMKTTVNKEEVLEQIQPVVLELAQKLADEILRLNQGNPHAIILIGGGSQTPLLAEVLSDLLELPRNRVGIQVRERIQGVSGEKSLKGPDAITPIGIGISTIEGEGLQYFSVHVNDLTVQIFELQLATVSDALLAAGITPRLLVGRPGSALTVELNGDIKVSKGQFSKPAQFFLNGEEVKLDHELKPGDKIQFIPAQDGENAQATFADLVPAIPEKKIKVNGESVVFTAQIFCNGRPVTRDGDVPDGAKITVFQNQTLKDLLHFLNDKQYSLSEIRYKINGEERVIPIHKEFYINQQKVALERMIKDGDDLVILVKEVYIKDLQLKPTPMVFYVNGQEVEYPPQIFRILSRGRVLSDQEKVVDGMELSVEGYDTMPLLSELLPYVNIPQDVPANARLSLKRNNQEAEFTTPLIPGDRIEIHWEQVASALLEHHHHHH
  protein production: not failed

## MPSSMLSHDPVLTWSIVALATAGVIIRPMRWPEAVWAVAGAVALVALGLLSWQDALAGVRNGIDVYLFLIGMMLIAELAQREGLFDYLAAYAVEHARGSPQRLFLLVYAVGVLVTVLLSNDATAIVLTPAVYAATRAAGAAPLPYLFVCAFIANAASFVLPISNPANLVVFGEHMPHLGGWLQQFTLPSLAAILATYLVLRLALRRSLAGQTIETRVETPHLSRGGKLAAVGIGAIAIVLLTASALNVALGLPTFVCGLVTTAVVLAIARQSPVPVLKGVSWSVVPLVAGLFVMVEALSRTGVIGALGGLLREAVADAPRLGSWAAGIVTAIACNIGNNLPVGLVAGSVAADNHLPRETIAALLIGVDLGPNFSVTGSLATILWLVVLRRNQIEVTAWRFLKLGLVVTPPALIAALAAAVW
  protein production: failed

## MGTDKFNNIKIDKYENLINVLKTGDIFLCSGNYLVSKLIKKVSESMFSHTGIIVKWGEHTLIMESVEDDGVRIVPLEHYIKNYENSNNRYNGSLFIARHELLQNVNDDSEMIRNLIKVGFSLLNSGYDKNEIAQIVARIGLGIGRHEDNNEYICSEFVNECFKKIGVEFLTDSEGFIFPEHIAADHHVLPIAQIE
  protein production: not failed

## MIHDVDPTNDKYPAALRILHWVRALLTLGLIAAGWMMTVLADTVTEKFTLLYPWHKSFGVLVFLIVLAQLAIRAMSRLPGPAPLPAQERLLSQAVHVAMYALLLLVPLMGYAMSSSFTDSDGVFFFGIHLPELLPKDDDRFRLFQFLHKTLAYSLLALVILHVAGALKHRYFDKDRRTDVLPRII
  protein production: failed

## MNESERKIVEEFQKETGINFKNEELLFRALCHSSYANEQNQAGRKDVESNEKLEFLGDAVLELFVCEILYKKYPEAEVGDLARVKSAAASEEVLAMVSRKMNLGKFLFLGKGEEKTGGRDRDSILADAFEALLAAIYLDQGYEKIKELFEQEFEFYIEKIMKGEMLFDYKTALQEIVQSEHKVPPEYILVRTEKNDGDRIFVVEVRVNGKTIATGKGRTKKEAEKEAARIAYEKLLKERS
  protein production: not failed

## MKTAQHETISNREFYFVLYMMLLYVTGWVIDVNGLFLSSYFNLAGEIMLPLVGGIVGLFIMSVNKQQTK
  protein production: failed

## MKVDREKYGSEKIAKLKILEELKKENPNKKIIAIGNGNNDELLLKNADLGICVIGDEGAWSKTILSSDIVVKDINDALDLLLNENRLKATSRD
  protein production: failed

## MEKLEVGQLAPDFRLKNSDGVEISLKDLLHKKVVLYFYPKDNTPGCTLEAKDFSALFSEFEKKNAVVVGISPDNAQSHQKFISQCSLNVILLCDEDKKAANLYKAYGKRMLYGKEHLGIIRSTFIINTQGVLEKCFYNVKAKGHAQKVLESL
  protein production: failed

## LQTALARLGQWGILSRDLYGFFDQATELIRTALGVDYCGLWELLPNRSALVLCAGDGWDKALVGNYTIDATNRSYAGYTIQHNGDRRMEDYEPIVELDLRISTKFRASPLLHNLGIVSGINLMVAGPRTAFGVLGVYSLTARKFTEEEIEFLKVASHILAAAIDRQEYEERLLLLQQAIDASS
  protein production: failed

## MSLKIGIIGGGSVGLLCAYYLSLYHDVTVVTRRQEQAAAIQSEGIRLYKGGEEFRADCSADTSINSDFDLLVVTVKQHQLQSVFSSLERIGKTNILFLQNGMGHIHDLKDWHVGHSIYVGIVEHGAVRKSDTAVDHTGLGAIKWSAFDDAEPDRLNILFQHNHSDFPIYYETDWYRLLTGKLIVNACINPLTALLQVKNGELLTTPAYLAFMKLVFQEACRILKLENEEKAWERVQAVCGQTKENRSSMLVDVIGGRQTEADAIIGYLLKEASLQGLDAVHLEFLYGSIKALERNTNKVEGHHHHHH
  protein production: not failed

## NRWITRPKFTHFDLHTLNWDLCLTQANHKSGLALDMLRMLLDSLPQTVSAIEAALSQNDQVTMLSTIHKLHGASCYCGVPTTQRLCQEIESALKREARVEDLEPEILELLDELTKVESAAKQVLSQLSAEITDDQKNGLL
  protein production: failed
